The record followed here is the Immune Epitope Database (IEDB).

Some results are limits rather than exact numbers.

The target in assay [1] is HLA-A*02:02. As to the kind of experiment: IEDB peptide-MHC binding, purified MHC/competitive/radioactivity; ≥ and ≤ were set here for values at or beyond the usual limits of such assays. The settings on record: source organism: Human immunodeficiency virus type 1 (isolate YU2).
Assay [2] has as its target HLA-A*02:03. The assay is described as above.
The target of assay [3] is HLA-A*02:06. The description is as above.
The target in assay [4] is HLA-A*68:02. The assay is described as above. Particulars: source organism: Human immunodeficiency virus type 1 (isolate YU2).
Assay [5] deals with HLA-A*02:06. As to the kind of experiment: IEDB peptide-MHC binding, purified MHC/competitive/radioactivity; filed as Kd, often an IC50 or EC50 that approximates it; ≥ and ≤ were set here for values at or beyond the usual limits of such assays. Particulars: source organism: Human immunodeficiency virus type 1 (isolate YU2).
The target in assay [6] is HLA-A*02:02. The assay is described as above.
For assay [7], the target named is HLA-A*68:02. Described as above.
The target of assay [8] is HLA-A*02:03. The assay is described as above. The settings on record: source organism: Human immunodeficiency virus type 1 (isolate YU2).
Where [9] appears, read: source organism: Human immunodeficiency virus type 1 (isolate YU2).
[10] abbreviates: source organism: Human immunodeficiency virus 1.

In general, IC50 refers to the concentration at which inhibition is half-maximal. A word on the Kd: it is the concentration at which binding is half-saturated.

With AIIRILQQL, the half-maximal inhibitory concentration (IC50) was determined as 22.6 nM in assay [1], 41.7 nM in assay [2] (setting [9]), 38.5 nM in assay [3] (setting [9]) and 548 nM in assay [4].

As for ILKEPVHGV, the Kd in assay [5] is no less than 37000 nM.

On to KAACWWAGI, for which the IC50 in assay [2] (setting [9]) came out at 83.3 nM; in assay [3] (setting [9]), 161 nM. Further, the dissociation constant (Kd) in assay [6] (setting [9]) was determined as 1080 nM.

Turning to KMIGGIGGFI, the IC50 in assay [1] is 54.4 nM; in assay [2] (setting [9]) it was 4.8 nM; in assay [3] (setting [9]) it was 771 nM. Further, in assay [7] (setting [9]), the dissociation constant Kd came to 3330 nM.

In the case of LLQLTVWGI, the 50% inhibitory concentration (IC50) in assay [1] stood at 215 nM; in assay [2] (setting [9]), 43.5 nM; in assay [3] (setting [9]) it was 24.7 nM; in assay [4] it was 645 nM.

For LTFGWCFKL, the concentration for half-maximal inhibition (IC50) came to 33.1 nM in assay [1], 206 nM in assay [3] (setting [9]) and 5.6 nM in assay [4]. For the same sequence, in assay [8], the dissociation constant Kd was 4550 nM.

As for LTFGWCFKLV, the results for the half-maximal inhibitory concentration (IC50) in assay [1], in assay [2] (setting [9]) and in assay [4] were 48.9 nM, 185 nM and 6.2 nM, respectively.

Regarding LVGPTPVNI, the half-inhibitory concentration (IC50) in assay [1] was determined as 154 nM; in assay [2] (setting [9]), 19.2 nM; in assay [4] it was 67.8 nM. Further, in assay [5], the equilibrium dissociation constant (Kd) amounted to 2850 nM.

Regarding MASDFNLPPV, the IC50 was 22.6 nM in assay [1], 55.6 nM in assay [2] (setting [9]), 33.6 nM in assay [3] (setting [9]) and 18.2 nM in assay [4].

For MTNNPPIPV, the IC50 in assay [2] (setting [9]) came to 33.3 nM; in assay [4], 12.1 nM. In addition, the results for the Kd in assay [6] (setting [9]) and in assay [5] were 7170 nM and 1610 nM, respectively.

As to RILQQLLFI, the half-maximal inhibitory concentration (IC50) in assay [2] (setting [9]) came to 125 nM; in assay [3] (setting [9]), 37 nM. The dissociation constant (Kd) in assay [6] (setting [9]) came out at 1540 nM; in assay [7] (setting [9]) it was 1820 nM.

Consider SLLNATDIAV, for which the IC50 in assay [2] (setting [10]) was found to be 238 nM; in assay [3] (setting [10]), 28.5 nM. The figures for the equilibrium dissociation constant (Kd) in assay [6] (setting [10]) and in assay [7] (setting [10]) were 1300 nM and 5480 nM, respectively.

Regarding VLAEAMSQV, the IC50 in assay [1] was found to be 82.7 nM; in assay [2] (setting [9]), 15.2 nM; in assay [3] (setting [9]), 116 nM.
